Reference: publication PMC11161652, “ASXLs binding to the PHD2/3 fingers of MLL4 provides a mechanism for the recruitment of BAP1 to active enhancers” (Nature Communications, 2024)

Key:
[1] = tested on: GST-MLL3PHD2/3; assay: GST pull-down, WT MLL3PHD2/3; format: binding, human; conditions: WT GST-MLL3PHD2/3; HEK293FT lysate, 3 h at 4 °C, western blot; n = 3
Procedure: (§1) Pull-down assays were performed by mixing resin-bound GST-MLL3PHD2/3 and GST-MLL4PHD2/3 (wild type and mutants) with lysates of HEK293FT expressing Myc-ASXL1, Myc-ASXL2 or Myc-ASXL2ΔMBH. Pellets of HEK293FT cells transfected with the appropriate pDEST expression construct (15 μg/dish using polyethylenimine (PEI)) were lysed with 10 times their volume of lysis buffer (50 mM Tris pH 7.3, 100 mM NaCl, 1 mM DTT, 1 mM EDTA, 1 mM PMSF, 0.1% Tween20, 1/100 anti-protease (Sigma)) and sonicated with a probe sonicator (Branson digital sonifier 450) calibrated at 40% amplitude for 3–4 rounds during 40–60 s. Lysates were then centrifuged in a Sorvall Lynx 6000 (rotor: F21-8x50Y) at 15,000 RPM during 20 min. Approximatively 9 μg of purified GST-fusion proteins bound to GSH resin (Sigma, G4510) were used for each condition. Final volume of GSH resin was adjusted to 30 μl per condition with empty GSH beads and incubated with 1.5 mL of HEK293FT lysate expressing Myc-ASXL1, Myc-ASXL2 or Myc-ASXL2ΔMBH for 3 h at 4 °C on a rotative system. A fraction of the reaction mixture (80 μL) was collected as the input. After the incubation, beads were washed 5 times and mixed with 100 μL of Laemmli buffer. Samples were loaded on 8% or 15% SDS-acrylamide gels and processed for western blotting.

[2] = tested on: GST-MLL4PHD2/3; assay: GST pull-down, WT MLL4PHD2/3; format: binding, human; conditions: WT GST-MLL4PHD2/3; HEK293FT lysate, 3 h at 4 °C, western blot; n = 3
Procedure: as §1

[3] = tested on: PR-DUB complex; assay: Tandem affinity purification: association with PR-DUB complex; format: cell-based, human; conditions: K562 soluble nuclear extracts, 3Flag-2Strep tag, western blot and mass spectrometry
Procedure: (§2) Isogenic K562 cell lines expressing 3xFlag2xStrep-tagged ASXL2 WT and ΔMBH (aa 650-670), were generated by integration at the AAVS1 safe harbor locus after DSB induction and recombination targeted by co-transfection with a ZFN expression plasmid, as previously described. 2 × 10^5 cells were transfected with 400 ng of ZFN expression vector and 4 μg of donor constructs. Selection and cloning were performed in RPMI medium supplemented with 0.5 μg/mL puromycin starting 2–3 days post transfection. Clones were obtained by limiting dilution and expanded before harvest for western blot analysis.
(§3) For purification of native complexes, after large-scale expansion of K562 clones, affinity purifications of tagged ASXL2 WT and ΔMBH (aa 650-670) were performed on nuclear extracts as previously described. Briefly, nuclear extracts were prepared following standard procedures and pre-cleared with CL6B Sepharose beads. […] Typically, 5–15 μl of the elutions (1–3% of total) was loaded on NuPAGE 4–12% Bis-Tris gels (Invitrogen) and analyzed by silver staining and western blots. […] Purified fractions were prepared and analyzed at the Proteomics Platform of the Quebec Genomic Center using an Orbitrap Fusion mass spectrometer (Thermo Fisher Scientific) as previously described. […]

[4] = tested on: MLL3/4 complexes; assay: Tandem affinity purification: interaction with MLL3/4 complexes; format: cell-based, human; conditions: K562 soluble nuclear extracts, 3Flag-2Strep tag, western blot and mass spectrometry
Procedure: as §2, §3

[5] = tested on: H2AK119; assay: H2AK119 deubiquitination assay; format: biochemical, human
Procedure: The deubiquitination reactions were done by adding equivalent amounts of ASXL2 WT or ΔMBH (4 μl E1-F) native complexes purified from K562 cells to 0.5 μg of chromatin enriched extracts from K562 cells, incubated at 37 °C in 50 mM Tris-HCl pH 7.3, 50 mM NaCl, 1 mM MgCl2, 1 mM DTT, 1 mM PMSF, 10 μg/ml Leupeptin, 10 μg/ml Pepstatin A, 25 μg/ml Aprotinin. After 3 or 6 h incubation, 4X Laemmli buffer was added, the samples run on 15% SDS-PAGE and transferred on nitrocellulose membrane. Immunoblotting was performed with an anti-H2AK119ub (Cell Signaling, D27C4, rabbit polyclonal) diluted 1:2000 followed by HRP conjugated secondary goat anti-rabbit antibody (Sigma) used at a 1:10,000 dilution. The immunoblots were visualized using a Western Lightning plus-ECL reagent (Perkin-Elmer). Anti-H3 (Abcam, Ab1791, rabbit polyclonal) was used at a 1:50,000 dilution.
Cell pellets were harvested 2 days post-transfection and lysed with 10 times their own volume with EB300 lysis buffer (50 mM Tris pH 7.3, 300 mM NaCl, 0.5% Triton X100 (V/V), 5 mM EDTA, 50 mM NaF, 1 mM Na3VO4 (activated), 10 mM Beta-glycerol-phosphate, 1 mM DTT, 1 mM PMSF, 1/100 anti-protease (Sigma)). Lysates were incubated on ice for 30 min before centrifugation in a Sorvall Lynx 6000 (rotor: F21-8x50Y) at 15,000 RPM during 20 min. Supernatants were collected and diluted with EB0 (50 mM Tris pH 7.3, 0.5% Triton X100 (V/V), 5 mM EDTA, 50 mM NaF, 1 mM Na3VO4, 10 mM Beta-glycerol-phosphate, 1 mM DTT, 1 mM PMSF, 1/100 anti-protease) to adjust the final concentration of NaCl to 150 mM. Agarose anti-FlagM2 beads (40 μL) (Sigma, A2220) were added to each lysate and incubated overnight at 4 °C on a rotative system. The next day, beads were washed 5 times with the wash buffer (50 mM Tris pH 7.3, 150 mM NaCl, 0.5% Triton X100 (V/V), 1/500 anti-protease, 1 mM DTT, 1 mM PMSF). […] Following three elutions of 2 h each, the pooled fractions were incubated with 40 μL of anti-HA beads (Sigma A2095) overnight at 4 °C on a rotative system. […]

[6] = tested on: H3K4 (recombinant histone octamers or mono-nucleosomes); assay: H3K4 histone methyltransferase assay; format: biochemical, human; conditions: purified complexes, 50 μM S-adenosyl-L-methionine, 8 h at 30 °C, n = 2
Procedure: Equivalent amounts of purified ASXL2 WT and ΔMBH complexes were incubated with 0.5 μg of reconstituted recombinant mono-nucleosomes or histone octamers as substrates. All HMT assays were performed in 50 mM Tris-HCl pH 8, 100 mM KCl, 5 mM MgCl2, 0.1 mM DTT, 10% glycerol in the presence of 50 μM S-adenosyl-L-methionine (Sigma, A7007). After an 8 h incubation at 30 °C, 4X Laemmli buffer was added, the samples run on 15% SDS-PAGE and transferred on nitrocellulose membrane. Immunoblotting was performed with an anti-H3K4me1 (Ab8895, rabbit polyclonal) diluted 1:1000 followed by HRP conjugated secondary goat anti-rabbit antibody (Sigma) used at a 1:10,000 dilution. The immunoblots were visualized using a Western Lightning plus-ECL reagent (Perkin-Elmer). Anti-H4 (Abcam, Ab7311, rabbit polyclonal) was used at a 1:2,500 dilution.

[7] = tested on: active enhancer upstream of GRHL2 gene in K562 ASXL2 KD cells; assay: ChIP-qPCR at active enhancer upstream of GRHL2; format: cell-based, human; conditions: K562 ASXL2 KD cells complemented from AAVS1; IP/input corrected for total H3; three biological replicates
From the text: K562 cell lines with knocked down expression of endogenous ASXL2 were obtained after double infection of lentivirus expressing Cas9 and 4 different gRNAs targeting the end of exon 1 (pLENTI_CRISPR_V2, co-selection by FACS with GFP). Clone 1 L was selected (obtained with gRNA 1: 5′-[…]-3′ cutting at the very end of exon 1) for transfection of WT and DMBH ASXL2 vectors for integration and stable expression from the AAVS1 safe harbor, as described for the tagged K562 cell lines used for purification. Expression levels of endogenous ASXL2, WT and ΔMBH ASXL2 were monitored by running SDS-PAGE and transferring onto nitrocellulose membrane. Anti-FLAG M2 conjugated to horseradish peroxidase (A8592, Sigma) was used at 1:10,000 dilution and anti-ASXL2, at 1:2,000 (Cell Signaling (E623X), CS71257, lot:1). Immunoblots were visualized using a Western Lightning plus ECL reagent (Perkin-Elmer).
Crosslinked chromatin from K562 cells and immunoprecipitations were prepared as previously described. For chromatin immunoprecipitation, 100 μg of chromatin was incubated with 2 μg anti-H2AK119ub (Cell Signaling, 8240S, D27C4 lot:9) or 3 μg anti-H3 (Abcam, ab1791, lot GR3421644-1), 2 μg anti-H3Kme1 (Abcam, ab8895, lot GR442591-1), 2 μg anti-H3K27ac (Thermo Fisher, MA5-23516, lot: ZA4181671) or 0.3 μg anti-H3K27me3 (Cell Signaling, C36B11, 9733 S lot:19) antibodies overnight at 4 °C. 25 μl of Protein A Dynabeads were then added to each sample, and the mixtures were incubated at 4 °C for 4 h. The beads were washed extensively and eluted with 1% SDS and 0.1 M NaHCO3. Cross-linked samples were reversed by heating overnight at 65 °C in the presence of 0.2 M NaCl. Samples were then treated with RNase A and proteinase K for 2 h, and DNA was recovered using MinElute PCR purification Kit (Qiagen, 28004) according to the manufacturer’s instructions. Quantitative real-time PCR corrected for primer efficiencies in the linear range was performed using SYBR Green I (Roche, 04877352001) on a LightCycler 480 (Roche). Primers for 5′ end of active enhancer: Fwd: 5′-[…]; Rev: 5′-[…]; For 3′ end: Fwd: 5′-[…], Rev: 5′-[…].

B1: ASXL2ΔMBH: ΔMBH ASXL2 mutant lacking the MLL3/4-binding domain (aa 650-670) (protein)
chain: MREKGRRKKGRTWAEAAKTVLEKYPNTPMSHKEILQVIQREGLKEIRSGTSPLACLNAMLHTNSRGEEGIFYKVPGRMGVYTLKKDVPDGVKELSEGSEESSDGQSDSQSSENSSSSSDGGSNKEGKKSRWKRKVSSSSPQSGCPSPTIPAGKVISPSQKHSKKALKQALKQQQQKKQQQQCRPSISISSNQHLSLKTVKAASDSVPAKPATWEGKQSDGQTGSPQNSNSSFSSSVKVENTLLGLGKKSFQRSERLHTRQMKRTKCADIDVETPDSILVNTNLRALINKHTFSVLPGDCQQRLLLLLPEVDRQVGPDGLMKLNGSALNNEFFTSAAQGWKERLSEGEFTPEMQVRIRQEIEKEKKVEPWKEQFFESYYGQSSGLSLEDSKKLTASPSDPKVKKTPAEQPKSMPVSEASLIRIVPVVSQSECKEEALQMSSPGRKEECESQGEVQPNFSTSSEPLLSSALNTHELSSILPIKCPKDEDLLEQKPVTSAEQESEKNHLTTASNYNKSESQESLVTSPSKPKSPGVEKPIVKPTAGAGPQETNMKEPLATLVDQSPESLKRKSSLTQEEAPVSWEKRPRVTENRQHQQPFQVSPQPFLNRGDRIQVRKVPPLKIPVSRISPMPFHPSQVSPRARFPVSITSPRAAAAAAAAAAAAASVGGTIPGPGPGGGQGPGEGGEGQTARGGSPGSDRVSETGKGPTLELAGTGSRGGTRELLPCGPETQPQSETKTTPSQAQPHSVSGAQLQQTPPVPPTPAVSGACTSVPSPAHIEKLDNEKLNPTRATATVASVSHPQGPSSCRQEKAPSPTGPALISGASPVHCAADGTVELKAGPSKNIPNPSASSKTDASVPVAVTPSPLTSLLTTATLEKLPVPQVSATTAPAGSAPPSSTLPAASSLKTPGTSLNMNGPTLRPTSSIPANNPLVTQLLQGKDVPMEQILPKPLTKVEMKTVPLTAKEERGMGALIATNTTENSTREEVNERQSHPATQQQLGKTLQSKQLPQVPRPLQLFSAKELRDSSIDTHQYHEGLSKATQDQILQTLIQRVRRQNLLSVVPPSQFNFAHSGFQLEDISTSQRFMLGFAGRRTSKPAMAGHYLLNISTYGRGSESFRRTHSVNPEDRFCLSSPTEALKMGYTDCKNATGESSSSKEDDTDEESTGDEQESVTVKEEPQVSQSAGKGDTSSGPHSRETLSTSDCLASKNVKAEIPLNEQTTLSKENYLFTRGQTFDEKTLARDLIQAAQKQMAHAVRGKAIRSSPELFSSTVLPLPADSPTHQPLLLPPLQTPKLYGSPTQIGPSYRGMINVSTSSDMDHNSAVPGSQVSSNVGDVMSFSVTVTTIPASQAMNPSSHGQTIPVQAFSEENSIEGTPSKCYCRLKAMIMCKGCGAFCHDDCIGPSKLCVSCLVVR
modifications: left off: 3xFlag, end not stated, kept | 2xStrep, end not stated, kept
[1]
  association in pull-down: essentially abolished
[2]
  association in pull-down: essentially abolished
[3]
  association with PR-DUB complex: stably associates with the expected components of the PR-DUB complex
[4]
  interaction with MLL3/4 complexes: abrogated the interaction between ASXL2 and MLL3/4 in vivo
[5]; BAP1/ASXL2 complexes from co-transfected HEK293FT cells, purified native nucleosomes, room temperature, n=2
  deubiquitinase activity toward H2AK119Ub in vitro: does not affect
[5]; purified complexes on human chromatin, 37 °C, 3 or 6 h, immunoblot
  de-ubiquitination of H2AK119: efficient and equivalent de-ubiquitination of H2AK119
[6]
  mono-methylation of H3K4: markedly decreased
[7]
  H2AK119ub level: not the ΔMBH ASXL2 mutant led to a decrease in H2AK119ub level
  H3K4me1 level: not affected
